{"source": "paper PMC9714666", "about": "(Frontiers in Immunology, 2022)", "binders": {"B1": {"name": "D27LEY (antibody, V domains shown)", "VH": "QVQLQQSGAEVKKPGSSVKVSCKASGGTFGNWSISWVRQAPGQGLEWMGGIAPGRGEATYAQKFQGRVTITTDESTSTAYMELSSLRSEDTAVYYCARETWYTSGGMDVWGQGTTVTVSS", "VL": "SYELTQPPSVSVAPGKTARITCGGNNIGRKSVHWYQQKPGQAPVLVVYDDSDRPSGIPERFSGSNSGNTATLTISRVEAGDEADYYCQVYDLWSSDYVFGTGTKVEIK"}}, "key": {"[1]": {"target": "T1, SARS-CoV-2 Omicron (B.1.1.529) RBD, biotinylated (SARS-CoV-2 Omicron B.1.1.529 (BA.1), strain, biotinylated)", "T1 construct": "source: bought: ACRObiosystems", "assay": "BLI", "conditions": "both partners purified"}, "[2]": {"target": "T2, SARS-CoV-2 Omicron BA.5 RBD, biotinylated (SARS-CoV-2 Omicron BA.5, strain, biotinylated)", "T2 construct": "source: bought: ACRObiosystems", "assay": "BLI", "conditions": "both partners purified"}}, "data": [{"binder": "B1", "values": [{"measurement": "Kd", "setting": "[1]", "value": 0.34, "unit": "nM"}, {"measurement": "Kd", "setting": "[2]", "value": 0.37, "unit": "nM"}]}]}
